# Patent US20240084023A1 (NGM BIOPHARMACEUTICALS, published 2024)
# Substitutions are numbered along the chain they refer to.
# B1: anti-GCGR antibody 1H2 (antibody, V domains shown)
# VH: QVQLQQPGAELVKPGASVKMSCKVSGYTFTSYWITWVKQRPGQGLEWIGDIHPGGGDTNYNKKFKSKATLTVDTSSSTAYMQLSSLTSEDSAVYHCTSDDNYVGFTYWGQGTLVTVSA
# VL: DVLMTQTPLSLPVSLGDQASISCRSSQTIIHSDGNTYLEWYLQKPGQSPILLIYKVSNRFSGVPDRFSGSGSGTDFTLKISRVEAEDLGVYYCFQGSHVPWTFGGGTKLEIK
# notes: mouse hybridoma monoclonal antibody
# B2: anti-GCGR antibody 13G9 (antibody, V domains shown)
# VH: QVQLQQSGAELVRPGTSVKISCKASGYTFTNYWLGWVKQRPGHGLEWIGDIYPGGDYNNYNGKFKGKATLTADTSSSTAYIQLSSLTSEDSAVYFCVRSDDGYSWGQGTTLTVSS
# VL: B1 VL with T28S, I30V, H31D, D33Y, L42Q, I50T, S61A, V99I, L109V
# notes: mouse hybridoma monoclonal antibody; also called 13G19
# B3: anti-GCGR antibody 14F4 (antibody, V domains shown)
# VH: QVQLQQSGAELVRPGTSVNMSCKATGYTFTNYWIGWVKQRPGHGLEWIGDIFPGGFYSNYNEKFKGKATLTTDTSSSTGYMQLSSLTSEDSAIYYCARIWDRGFDYWGQGTTLTVSS
# VL: B1 VL with T7S, T28S, I30V, H31D, D33Y, I50K, L88R, V90L, W101Y
# notes: mouse hybridoma monoclonal antibody; also called 141F4
# B4: anti-GCGR antibody 4F8 (antibody, V domains shown)
# VH: QVQLQQSGAELVRPGTSVTMSCKAAGYTFSNYWIGWVKQRPGHGLEWIGDIYPGGFYDNYNDKFKGKATLTTDTSSSTAYMQLSSLTSEDSAIYYCTRSGGLPGAGFTYWGQGTLVTVSA
# VL: B1 VL with T28H, I30V, H31Y, I50K, K79E
# notes: as for B1
# B5: anti-GCGR antibody 14E9 (antibody, V domains shown)
# VH: QVQLQQSGAELVRPGTSVKMSCKAAGYTFTNYWIGWVKQRPGHGLEWIGDISPGNYYTNYNAKFKDKVSLTADTSSSTAYMQLSSLTSEDSAIYYCARYDEFAYWGQGTLVTVSA
# VL: B1 VL with P12S, T28S, I30V, I50K
# notes: mouse hybridoma monoclonal antibody; also called 13E9
# B6: anti-GCGR antibody 1C3 (antibody, V domains shown)
# VH: EVQLQQSGPELVKPGASVKMSCKASGYTFTSSVMHWVKQKPGQALEWIGYINPYNDGTKYNENFKGKATLTSDRSSTTAYMELSSLTSEDSAVYYCVTGAGYDRGPMAMDYWGQGTSVTVSS
# VL: NIVLTQSPASLAVSLGQRATISCRASESVDSYGDSFVHWYQQKPGQPPKLLIYFASNLESGVPARFSGSGSRTDFTLTIDPVEADDTATYYCQQNNEVPFTFGSGTKLELK
# notes: as for B1
# B7: anti-GCGR antibody 1C1 (antibody, V domains shown)
# VH: EVQLQQSGPELVKPGATVKMSCKASGYTFTRNVIHWVKQKPGQGLEWIGYINPYNDGAKYNAKFKGKATVTSDKSSSTAYMELSSLTSEDSAVYYCARWGNYEDFAMDYWGQGTSVTVSS
# VL: NIVLTQSPPSLAVSLGQRATISCRASESVDIYGNSYMHWYQQKPGQPPKLLIYLASNLESGVPARFSGSGSRTEFSLTIDPVEAGDAATYYCQQNNEDPFTFGGGTKLEIK
# notes: as for B1
# Biological target: full-length human GCGR on CHO cells (human, UniProt P47871 26-477)
# Experiment: cell-based or functional assay
# Sequence of full-length human GCGR on CHO cells (P47871 26-477): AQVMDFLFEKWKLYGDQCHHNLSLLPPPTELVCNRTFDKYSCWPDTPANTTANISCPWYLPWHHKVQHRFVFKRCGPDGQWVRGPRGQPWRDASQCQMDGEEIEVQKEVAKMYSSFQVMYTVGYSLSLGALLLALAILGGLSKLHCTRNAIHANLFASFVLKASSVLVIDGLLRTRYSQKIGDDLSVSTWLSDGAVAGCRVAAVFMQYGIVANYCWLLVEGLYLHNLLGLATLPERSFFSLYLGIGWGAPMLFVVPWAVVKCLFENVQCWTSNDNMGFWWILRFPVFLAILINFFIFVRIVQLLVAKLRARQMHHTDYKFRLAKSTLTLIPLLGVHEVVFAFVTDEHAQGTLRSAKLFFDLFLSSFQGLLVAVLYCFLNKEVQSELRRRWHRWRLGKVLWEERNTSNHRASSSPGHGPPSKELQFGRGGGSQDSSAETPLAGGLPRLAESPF
Binder,cAMP assay-1 IC50 [nM],cAMP assay-3 IC50 [nM],cAMP assay-2 IC50 [nM]
B1,3.78,–,–
B2,7.22,0.99,–
B3,16,6.48,–
B4,–,3.84,–
B5,24.6,1.32,–
B6,6.42,–,13.6
B7,–,–,14.3

# Biological target: T1, soluble human GCGR extracellular domain (human, UniProt P47871 26-136, limits assumed)
# T1 construct: also called soluble GCGR
# Experiment: Biacore SPR, captured antibody, soluble human GCGR extracellular domain as analyte
# Experimental: In some experiments, supernatants were screened for binding to human GCGR using a Biacore SPR system. Briefly, anti-mouse Fc antibody (Sigma-Aldrich) was immobilized on all four flow cells of a CM5 chip using amine coupling reagents (GE Healthcare LifeSciences). Hybridoma supernatants were diluted three-fold with PBS-P buffer (PBS containing 0.005% P20) and injected for 30 seconds overflow cells 2, 3 and 4 to capture the test antibodies and using flow cell 1 as a reference. The next step was an injection of soluble human GCGR extracellular domain (100 nM in PBS-P buffer) at a flow rate of 50 μL/min and monitoring of the binding kinetics at 25° C. Kinetic data were collected over time and fit using the simultaneous global fit equation to yield affinity constants (KD values) for each antibody.
# T1 sequence (P47871 26-136 limits assumed): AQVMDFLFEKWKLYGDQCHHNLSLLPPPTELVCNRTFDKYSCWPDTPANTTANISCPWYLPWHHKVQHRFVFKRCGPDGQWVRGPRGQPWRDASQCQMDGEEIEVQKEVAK
row,Binder,Kd [nM]
1,B1,3.7
2,B2,0.25
3,B3,0.57
4,B4,0.5
5,B5,0.8
6,B6,1.4
7,B7,1.9
